Here are results for 1 molecule from patent US20250084178A1, “ANTI-CD39 ANTIBODIES AND USE THEREOF” (ARCUS BIOSCIENCES, INC., priority 2022, published 2025).

Entries after “also recorded” stand apart in the source; their conditions may differ.

For series [1], the system named is immune subpopulations in tumor draining lymph nodes. Description: Tumor draining lymph node immune subpopulation percentages. Conditions: single agent or in combination with oxaliplatin. Format: in vivo, mouse. How it is done:
(§1) Cell surface CD39 decreases with anti-CD39 treatment in tumor draining lymph nodes of hCD39KI mice. Tumor draining lymph nodes (TLDNs) (right inguinal lymph node) were also collected at the end of the C57BL/6 hCD39KI MC38 mouse study described above. Lymph nodes were dissociated in a 37° C. water bath in RPMI 1640 (Gibco, Cat. No. 11875119) containing of 0.6 mg/mL Collagenase P (Roche, Cat. No. 11213865001), 2.4 mg/mL Dispase II (Sigma, Cat. No. D4693), and 0.3 mg/mL DNAse I (Thermo Scientific, Cat. No. J62229 MB) for 30 minutes with gentle agitation. The dissociated lymph nodes were counted and 2×10^5 cells per well were plated in a 96-well polypropylene v-bottom plate. Cells were washed in PBS (Gibco, Cat. No. 14190-144) and resuspended in a PBS solution containing 1:25 Fc Block (BD, Cat. No. 564220) and 1:250 Near IR Fluorescent Reactive Dye (Invitrogen, Cat. No. L34976A) for 15 minutes in the dark. After the incubation, the cells were stained with an antibody cocktail (Table 20) and incubated for 30 minutes at 4° C. After the incubation, the cells were pelleted, supernatant removed, and 100 μL of fixation buffer (eBioscience, Cat. No. 00-8222-49) was added for 1 hour. […]

The nature of series [2]: Body weight of hCD39KI MC38 mice. The settings on record: over the course of the experiment; C57BL/6 hCD39KI MC38 mice. The class given is in vivo, mouse. As for the experimental part: (§2) In one experiment, C57BL/6 hCD39KI mice were inoculated with 1 million MC38 cells on day 0. When tumors reached 80 mm^3, mice were dosed intraperitoneally (i.p.) with a loading dose of 20 mg/kg anti-CD39 or isotype control antibody (vehicle: PBS), and then subsequently with 10 mg/kg anti-CD39 or isotype control antibody 2×/week (BIW). Each group consisted of 11-12 mice. […] Oxaliplatin (OXA) treatment, 5 mg/kg i.p. (vehicle: saline), was initiated the day following the anti-CD39 or isotype control loading dose and dosed 1×/week. In a similarly designed experiment, BALB/c hCD39KI mice were inoculated with 4T1 cells on day 0 and treated OXA or anti-CD39 antibody as described for the MC38 model.
(§3) Tumor volume and body weight were measured approximately twice a week (BIW) and are shown in FIG. 10A and FIG. 10B respectively, where the points represent the mean and the errors bars the standard error of the mean (SEM) of the respective metrics from each group of mice. Significance was calculated using a mixed-effects model with multiple comparisons. […] Body weight was stable over the course of the experiment indicating anti-CD39 treatment was well tolerated (FIG. 10B).

Series [3] concerns the target T1, CD39 enzymatic activity (Homo sapiens, UniProt P49961).
T1 construct: from tissue; host or cells: hCD39KI mice (C57BL/6 with MC38, BALB/c with 4T1): tumours, spleen, whole blood / WBCs, tumour-draining lymph nodes
T1 sequence (P49961 1-510): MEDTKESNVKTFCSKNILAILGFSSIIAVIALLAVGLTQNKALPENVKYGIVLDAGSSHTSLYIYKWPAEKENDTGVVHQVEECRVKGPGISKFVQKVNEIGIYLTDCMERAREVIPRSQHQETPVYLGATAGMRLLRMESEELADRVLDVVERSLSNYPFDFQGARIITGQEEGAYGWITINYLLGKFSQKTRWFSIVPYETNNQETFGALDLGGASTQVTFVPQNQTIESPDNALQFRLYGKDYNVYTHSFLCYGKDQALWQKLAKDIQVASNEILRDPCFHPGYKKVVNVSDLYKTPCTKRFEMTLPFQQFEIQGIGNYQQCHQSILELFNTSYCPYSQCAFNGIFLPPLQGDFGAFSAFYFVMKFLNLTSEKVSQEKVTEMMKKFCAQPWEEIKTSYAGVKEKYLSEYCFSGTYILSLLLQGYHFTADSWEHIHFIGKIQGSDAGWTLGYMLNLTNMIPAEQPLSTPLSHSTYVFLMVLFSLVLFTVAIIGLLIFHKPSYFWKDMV
The experiment in a line: Ex vivo intratumoral CD39 enzymatic activity (Kinase-Glo Plus). Format: in vivo, mouse. The settings on record: MC38 and 4T1 tumor cell suspensions, 20 μM ATP. How it is done: Intratumoral and peripheral CD39 enzymatic activity was also evaluated ex vivo. Upon study completion, tumor samples obtained after sacrificing C57BL/6 hCD39KI MC38 and BALB/c hCD39KI 4T1 mice were placed in RPMI+20% FBS+250 μg/ml collagenase D (Millipore Sigma, Cat. No. 11088858001)+100 KU/ml DNAse 1 (Millipore Sigma Cat. No. D5025-150KU) and enzymatically digested using gentleMACS™ Octo Dissociator to obtain a single cell suspension. […] The cells were then treated with 20 μM ATP and incubated for an additional 30 minutes at 37° C., 5% CO2. At the end of the incubation period, the 96-well plate was spun at 1000 rpm for 3 minutes and the supernatant was collected. 2× Kinase-Glo® Plus (Promega, Cat. No. V3771) was then added to the supernatants. ATP levels in the supernatants were then measured by detecting luminescence using Flexstation® 3 microplate reader. Data are presented as relative luminescence units (RLU).
(In general: Kinase-Glo measures the ATP left after a reaction by luminescence.)

The nature of series [4]: Peripheral cytokine levels in plasma (MSD). Format: in vivo, mouse. Conditions: terminal bleed, mice bearing MC38 tumors. How it is done:
A terminal bleed of the mice bearing MC38 tumors were collected into BD Vacutainer® Heparin Tubes (BD Biosciences, Cat. No. 367871), centrifuged at 2000×g for 15 minutes, and supernatant plasma samples were collected. Cytokine levels in the plasma samples were analyzed using MSD following manufacturer's instructions. […] Data are presented as mean±SEM with a total of 11-12 mice per treatment group (FIG. 18). Statistical analyses were performed using an ANOVA with Tukey's multiple comparison test.

In the next series the test system is MC38 tumors. Description: MC38 tumor volume in C57BL/6 hCD39KI mice. The class given is in vivo, mouse. The settings on record: anti-CD39 20 mg/kg loading then 10 mg/kg BIW i.p. with oxaliplatin 5 mg/kg i.p. 1×/week; mixed-effects model. How it is done: as §2, §3
Series [5] addresses T2, human CD39 (Homo sapiens, UniProt P49961).
T2 sequence (P49961 1-510): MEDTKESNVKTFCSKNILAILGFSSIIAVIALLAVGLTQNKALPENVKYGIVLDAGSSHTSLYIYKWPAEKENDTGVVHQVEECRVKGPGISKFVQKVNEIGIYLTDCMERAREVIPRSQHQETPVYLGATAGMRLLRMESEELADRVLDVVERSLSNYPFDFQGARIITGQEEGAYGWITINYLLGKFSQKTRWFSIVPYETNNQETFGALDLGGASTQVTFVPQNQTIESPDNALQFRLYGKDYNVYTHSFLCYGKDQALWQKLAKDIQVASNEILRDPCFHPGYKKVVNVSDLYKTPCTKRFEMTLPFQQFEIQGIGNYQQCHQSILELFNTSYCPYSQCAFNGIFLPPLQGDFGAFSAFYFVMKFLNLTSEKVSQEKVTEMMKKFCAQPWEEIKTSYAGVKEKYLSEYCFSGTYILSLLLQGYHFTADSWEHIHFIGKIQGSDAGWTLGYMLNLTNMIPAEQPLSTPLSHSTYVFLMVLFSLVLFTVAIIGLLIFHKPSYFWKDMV
The experiment in a line: Tumor draining lymph node cell surface CD39. Format: in vivo, mouse. The settings on record: tumor draining lymph nodes, hCD39KI MC38 mice. As for the experimental part: as §1

Series [6] concerns the target T1, CD39 enzymatic activity. The experiment in a line: Ex vivo peripheral white blood cell CD39 enzymatic activity. Format: in vivo, mouse. The settings on record: white blood cells of 4T1 tumor-bearing hCD39KI mice, 20 μM ATP. An excerpt: To assay peripheral CD39 enzymatic activity, peripheral white blood cells (WBCs) were isolated from terminal blood samples of hCD39KI mice and assayed as generally described for the tumor cell suspensions. Briefly, whole blood samples were mixed with 1×Pharm Lyse red blood cell lysing solution (BD Biosciences, Cat. No. 555899). WBC pellets were then collected after washing with 1×PBS solution and stored in BamBanker cell freezing medium (Bulldog Bio, Cat. No. BB01). To perform the enzymatic inhibition assay, samples were thawed and then cells were plated at 2.5×10^4 cells per well in a 96-well plate. […] All wells were then treated with 20 μM ATP and incubated for 2 hours at room temperature. At the end of the incubation period, the 96-well plate was spun at 1000 rpm for 3 minutes and the supernatant was collected. 2× Kinase-Glo® Plus (Promega, Cat. No. V3771) was then added to the supernatants. ATP levels in the supernatants were then measured by detecting luminescence using Flexstation® 3 microplate reader. Data are presented as relative luminescence units (RLU).

Series [7] deals with T2, human CD39. Description: Enzyme histochemistry of tumors and spleens from C57BL/6 hCD39KI MC38 mice. Also on record: species or system mouse. Conditions: tumors and spleens treated in vivo, end of study. How it is done: Tumors and spleens from C57BL/6 hCD39KI MC38 mice at the end of the study were additionally analyzed for human CD39 expression by immunohistochemistry (IHC) and evidence of anti-CD39 antibody enzymatic blocking activity by enzyme histochemistry (EHC). Briefly, frozen OCT-embedded tumor or spleen samples were sectioned at 4 um thickness, mounted on positively charged microscope slides, air dried for 15 minutes, then placed in 4% paraformaldehyde (PFA) fixative for 20 min. After fixation, the slides were washed in Tris-buffered saline and IHC was performed on an automated Leica Bond Rx platform starting with blocking of endogenous peroxidases, followed by incubation with a rabbit anti-CD39 mAb (Abcam, EPR20627), and detected with an anti-rabbit HRP polymer system followed by a diaminobenzidine (DAB) brown chromogen, hematoxylin nuclear counterstain, and then dehydrated and mounted. […] Human CD39 expression was detected in both isotype treated (FIG. 11, panel A and FIG. 12, panel A, low- and high-power magnification, respectively) and anti-CD39 treated tumors (FIG. 11, panel C and […], low- and high-power magnification, respectively), localized to vascular endothelia, infiltrating immune cells, and stromal components of the tumor microenvironment. […]

B1: ch39_mIGG2A.AAG: antibody 39 variable regions on mouse IgG2a; HC SEQ ID NO: 41, LC SEQ ID NO: 42; the anti-CD39 of Example 9 (antibody)
heavy: EVQLVESGGGLVQPGRSLKLSCLASGFTFNNYGMNWIRQAPGKGLEWVASFSSSSTYISYADTVKGRFTISRENAKNTLYLQMTSLRSEDTALYYCVRHGRYGGYGGFYFDYWGQGVMVTVSSAKTTAPSVYPLAPVCGDTTGSSVTLGCLVKGYFPEPVTLTWNSGSLSSGVHTFPAVLQSDLYTLSSSVTVTSSTWPSQSITCNVAHPASSTKVDKKIEPRGPTIKPCPPCKCPAPNAAGGPSVFIFPPKIKDVLMISLSPIVTCVVVDVSEDDPDVQISWFVNNVEVHTAQTQTHREDYNSTLRVVSALPIQHQDWMSGKEFKCKVNNKDLGAPIERTISKPKGSVRAPQVYVLPPPEEEMTKKQVTLTCMVTDFMPEDIYVEWTNNGKTELNYKNTEPVLDSDGSYFMYSKLRVEKKNWVERNSYSCSVVHEGLHNHHTTKSFSRTPGK
light: DTVLTQSPALAVSPGERVSISCRASEGVKSYMHWYQQKPGQQPKLLIYKASNLASGVPARFSGSGSGTDFTLTIDPVEADDTATYFCQQSWNDPTFGAGTKLELKRADAAPTVSIFPPSSEQLTSGGASVVCFLNNFYPKDINVKWKIDGSERQNGVLNSWTDQDSKDSTYSMSSTLTLTKDEYERHNSYTCEATHKTSTSPIVKSFNRNEC
In the case of B1, the Immune subpopulation percentages result is recorded as “did not result in significant changes” in series [1] and “No significant changes” in series [1] (listed as anti-CD39). The Body weight result in series [2] is recorded as “stable”. In addition, the “Intratumoral CD39 enzymatic activity” value in the series with CD39 enzymatic activity [3] is given as “inhibited”. The Peripheral cytokine levels result in series [4] is “No elevation”. The “Tumor volume: p for anti-CD39+saline vs. anti-CD39+OXA” value with MC38 tumors is on record as 0.0217. Besides, the “Tumor volume: p for isotype+OXA vs. anti-CD39+OXA” value in the series on MC38 tumors came out at 0.0372. Also, the “Human CD39 on the surface of immune subpopulations” value with human CD39 [5] is given as “significant reduction; also recorded: significant decrease”. The “Peripheral CD39 enzymatic activity” value with CD39 enzymatic activity [6] is “inhibited”. Also, in the series with human CD39 [7], the “Lead-phosphate deposition by enzyme histochemistry (CD39 enzymatic activity)” value was “enzymatic activity has been blocked”.
